# Test results as given in US20240382610A1 (TALLAC THERAPEUTICS, published 2024).
# Changes are numbered by the printed parent chain.
# T1: Human nectin-4 ECD-6His (TNT-175) (human, UniProt Q96NY8 32-349)
# T1 construct: the entry holds the extracellular domain with the C-terminal 6His tag
# T1 sequence: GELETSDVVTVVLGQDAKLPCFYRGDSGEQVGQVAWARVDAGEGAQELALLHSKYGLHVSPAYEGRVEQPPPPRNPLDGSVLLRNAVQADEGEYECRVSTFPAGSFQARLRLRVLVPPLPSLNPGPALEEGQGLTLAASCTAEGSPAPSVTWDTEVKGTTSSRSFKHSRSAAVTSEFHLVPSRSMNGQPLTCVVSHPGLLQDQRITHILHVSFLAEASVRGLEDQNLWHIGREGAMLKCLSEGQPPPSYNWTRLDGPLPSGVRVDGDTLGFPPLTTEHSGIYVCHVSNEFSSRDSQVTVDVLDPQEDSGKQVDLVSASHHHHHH
# T2: human nectin-4 on cells (human, UniProt Q96NY8 32-510)
# T2 construct: whole, on cells; also called PVRL4
# T2 sequence (looked up): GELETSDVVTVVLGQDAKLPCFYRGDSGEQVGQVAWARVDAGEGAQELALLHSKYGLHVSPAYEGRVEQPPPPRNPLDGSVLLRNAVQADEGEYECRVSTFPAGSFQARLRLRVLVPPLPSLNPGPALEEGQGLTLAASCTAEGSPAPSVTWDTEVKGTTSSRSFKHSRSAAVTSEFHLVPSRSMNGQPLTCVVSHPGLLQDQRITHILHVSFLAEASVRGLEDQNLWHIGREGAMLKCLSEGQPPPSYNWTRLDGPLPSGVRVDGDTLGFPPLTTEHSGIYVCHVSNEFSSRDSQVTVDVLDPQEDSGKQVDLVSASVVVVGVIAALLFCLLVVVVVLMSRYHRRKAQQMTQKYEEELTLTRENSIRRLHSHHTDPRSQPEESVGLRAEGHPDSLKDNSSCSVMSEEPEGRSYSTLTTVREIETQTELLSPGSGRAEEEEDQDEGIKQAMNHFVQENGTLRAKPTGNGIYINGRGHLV
# B1: TNT-194 (antibody, mouse IgG2a, kappa)
# heavy: EVQLVQSGAEVKKPGASVKVSCKASGYTFTSYDINWVRQAPGQGLEWMGGIIPIFGTANYAQKFQGRVTITADESTSTAYMELRSLRSEDTAVYYCASTAVAGFGIDYWGQGTLVTVSSAKTTAPSVYPLAPVCGDTTGSSVTLGCLVKGYFPEPVTLTWNSGSLSSGVHTFPAVLQSDLYTLSSSVTVTSSTWPSQSITCNVAHPASSTKVDKKIEPRGPTIKPCPPCKCPAPNLLGGPSVFIFPPKIKDVLMISLSPIVTCVVVDVSEDDPDVQISWFVNNVEVHTAQTQTHREDYNSTLRVVSALPIQHQDWMSGKEFKCKVNNKDLPAPIERTISKPKGSVRAPQVYVLPPPEEEMTKKQVTLTCMVTDFMPEDIYVEWTNNGKTELNYKNTEPVLDSDGSYFMYSKLRVEKKNWVERNSYSCSVVHEGLHNHHTTKSFSRTPGRPQGFGPP
# light: DIQMTQSPSSLSASVGDRVTITCRASQGISNYLAWFQQKPGKAPKSLISAASSLQSGVPSRFSGSGSGTDFTLTISSLQPEDFATYYCLQHDSFPITFGGGTKLEIKRADAAPTVSIFPPSSEQLTSGGASVVCFLNNFYPKDINVKWKIDGSERQNGVLNSWTDQDSKDSTYSMSSTLTLTKDEYERHNSYTCEATHKTSTSPIVKSFNRNEC
# B2: TNT-195 (antibody, mouse IgG2a, kappa)
# heavy: EVQLVQSGAEVKKPGSSVKVSCKASGGTFSSYAISWVRQAPGQGLEWMGGIIPIFGTANYAQKFQGRVTITADKSTSTAYMELSSLRSEDTAVYYCAAGYYYDSSGYYHQPYYFDYWGQGTLVTVSSAKTTAPSVYPLAPVCGDTTGSSVTLGCLVKGYFPEPVTLTWNSGSLSSGVHTFPAVLQSDLYTLSSSVTVTSSTWPSQSITCNVAHPASSTKVDKKIEPRGPTIKPCPPCKCPAPNLLGGPSVFIFPPKIKDVLMISLSPIVTCVVVDVSEDDPDVQISWFVNNVEVHTAQTQTHREDYNSTLRVVSALPIQHQDWMSGKEFKCKVNNKDLPAPIERTISKPKGSVRAPQVYVLPPPEEEMTKKQVTLTCMVTDFMPEDIYVEWTNNGKTELNYKNTEPVLDSDGSYFMYSKLRVEKKNWVERNSYSCSVVHEGLHNHHTTKSFSRTPGRPQGFGPP
# light: B1 light with S10T, F36Y, S46L, S49Y, L89Q, H91S, D92Y, F94T, I96L, L104V
# B3: TNT-197 (antibody, mouse IgG2a, kappa)
# heavy: EVQLVQSGGGVVQPGRSLRLSCAASGFTFSSYAMHWVRQAPGKGLEWVAVISYDGSNKYYADSVKGRFTISRDNSKNTLYLQMNSLRAEDTAVYYCARATLQLWLPLFDYWGQGTLVTVSSAKTTAPSVYPLAPVCGDTTGSSVTLGCLVKGYFPEPVTLTWNSGSLSSGVHTFPAVLQSDLYTLSSSVTVTSSTWPSQSITCNVAHPASSTKVDKKIEPRGPTIKPCPPCKCPAPNLLGGPSVFIFPPKIKDVLMISLSPIVTCVVVDVSEDDPDVQISWFVNNVEVHTAQTQTHREDYNSTLRVVSALPIQHQDWMSGKEFKCKVNNKDLPAPIERTISKPKGSVRAPQVYVLPPPEEEMTKKQVTLTCMVTDFMPEDIYVEWTNNGKTELNYKNTEPVLDSDGSYFMYSKLRVEKKNWVERNSYSCSVVHEGLHNHHTTKSFSRTPGRPQGFGPP
# light: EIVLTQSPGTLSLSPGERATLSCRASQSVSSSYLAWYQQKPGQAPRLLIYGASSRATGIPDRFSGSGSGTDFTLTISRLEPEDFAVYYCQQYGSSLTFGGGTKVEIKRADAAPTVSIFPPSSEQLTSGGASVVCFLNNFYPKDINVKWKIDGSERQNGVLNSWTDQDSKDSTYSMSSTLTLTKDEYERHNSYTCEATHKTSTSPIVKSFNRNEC
# Target: T1, Human nectin-4 ECD-6His (TNT-175)
# Assay: SPR ProteOn, mAb on protein A
# Protocol: Initial testing of binding of nectin-4 antibodies to nectin-4. […] Biotinylated protein A (15 μg/mL) was immobilized to the surface of an NLC chip. 30 nM of purified mAb supernatant was diluted in PBS-T and captured over the protein A surface. Serial dilutions of human nectin-4 were injected over the mAb-coated chips, and binding kinetics were determined. Chips were regenerated using 4:1 v/v of IgG elution butter/4M NaCl.
Kd,koff,kon,Binder
0.585 nM,0.0023 s⁻¹,3.92e+06 M⁻¹ s⁻¹,B1
1.34 nM,0.00125 s⁻¹,930000 M⁻¹ s⁻¹,B2
4.28 nM,0.00334 s⁻¹,780000 M⁻¹ s⁻¹,B3

# Target: T2, human nectin-4 on cells
# Assay: flow cytometry MFI, MNK74 (nectin-4 positive) over AGS (negative)
# Protocol: Cell binding of nectin-4 antibodies. Cell binding of the nectin-4 antibodies was also assessed. MNK74 (nectin-4 positive) and AGS (nectin-4 negative) cells were obtained from ATCC and cultured according to their protocols. Cells were detached with TrypLE (Gibco) and washed by centrifugation for five minutes at 400×g with FACS buffer (PBS+2% FBS). Cells were resuspended in FACS buffer, plated in 96-well format (0.25 e6/well) then pelleted by centrifugation for five minutes at 400×g. Cells were stained at 4° C. in Fixable Viability Dye eFluor 506 (eBioscience) diluted 1:4,000 in PBS. […] Cells were centrifuged, washed once in FACS buffer and stained at 4° C. with Goat F(ab′)₂ anti-Mouse IgG APC (Southern Biotech) diluted 1:400 in FACS buffer for 30 minutes or appropriate anti-human IgG. Cells were centrifuged, washed twice and fixed in 0.5% paraformaldehyde. Cells were analyzed on Attune NxT Flow Cytometer (Thermo Fisher), with subsequent data analysis by Flowjo 10.7 (BD). Dead cells were excluded by gating on the eFluor 506-negative population. […] Binding was assessed by median fluorescent intensity.
row,Fold-change of binding to MNK74 compared to control AGS,Binder
1,7 fold,B1
2,6.4 fold,B2
3,4.8 fold,B3

# Target: T1, Human nectin-4 ECD-6His (TNT-175)
# Assay: competition ELISA; nectin-4 ECD premixed with TNT201, captured by the coat antibody; % of signal without premix antibody
# Protocol: (§1) Competition experiments of nectin-4 antibodies. ELISA plates were coated overnight at 4° C. with goat anti-mouse IgG at […] in PBS. […] As positive control, nectin-4 was diluted at same concentrations without a premix antibody. Two wells per plate were allocated for diluent only as negative/background control. Plates were washed as previously, 50 μL/well of premix was added to each plate and incubated for one hour. Plates were washed then incubated at room temperature for one hour with Rabbit anti 6× HIS HRP diluted 1:4,000 in diluent. Plates were washed once more and incubated at room temperature for 20 minutes with 50 μL/well of ABTS substrate. […] Binding was measured as an Optical Density (O.D.) value normalized to background and calculated as a percentage of positive control at the lowest nectin-4 dilution for greatest resolution.
row,% of Positive,Binder
1,6.7%,B1
2,6.6%,B2
3,1.7%,B3

# Target: T1, Human nectin-4 ECD-6His (TNT-175)
# Assay: competition ELISA; nectin-4 ECD premixed with TNT202, captured by the coat antibody; % of signal without premix antibody
# Protocol: as §1
row,% of Positive,Binder
1,27.9%,B1
2,24.7%,B2
3,7.8%,B3

# Target: T1, Human nectin-4 ECD-6His (TNT-175)
# Assay: competition ELISA; nectin-4 ECD premixed with TNT203, captured by the coat antibody; % of signal without premix antibody
# Protocol: as §1
row,% of Positive,Binder
1,65.2%,B1
2,51.5%,B2
3,39.7%,B3

# Target: T1, Human nectin-4 ECD-6His (TNT-175)
# Assay: competition ELISA; nectin-4 ECD premixed with TNT204, captured by the coat antibody; % of signal without premix antibody
# Protocol: as §1
row,% of Positive,Binder
1,18.7%,B1
2,15.2%,B2
3,6.7%,B3

# Target: T1, Human nectin-4 ECD-6His (TNT-175)
# Assay: competition ELISA; nectin-4 ECD premixed with TNT205, captured by the coat antibody; % of signal without premix antibody
# Protocol: as §1
row,% of Positive,Binder
1,75.3%,B1
2,63.2%,B2
3,57.1%,B3

# Target: T1, Human nectin-4 ECD-6His (TNT-175)
# Assay: competition ELISA; nectin-4 ECD premixed with TNT206, captured by the coat antibody; % of signal without premix antibody
# Protocol: as §1
row,% of Positive,Binder
1,43.1%,B1
2,35.8%,B2
3,14.3%,B3

# Target: T1, Human nectin-4 ECD-6His (TNT-175)
# Assay: competition ELISA; nectin-4 ECD premixed with TNT207, captured by the coat antibody; % of signal without premix antibody
# Protocol: as §1
row,% of Positive,Binder
1,18.4%,B1
2,18.3%,B2
3,3.4%,B3

# Target: T1, Human nectin-4 ECD-6His (TNT-175)
# Assay: competition ELISA; nectin-4 ECD premixed with TNT208, captured by the coat antibody; % of signal without premix antibody
# Protocol: as §1
row,% of Positive,Binder
1,26.4%,B1
2,23.1%,B2
3,5.8%,B3

# Target: T1, Human nectin-4 ECD-6His (TNT-175)
# Assay: competition ELISA; nectin-4 ECD premixed with TNT209, captured by the coat antibody; % of signal without premix antibody
# Protocol: as §1
row,% of Positive,Binder
1,66.5%,B1
2,56.2%,B2
3,37.2%,B3

# Target: T1, Human nectin-4 ECD-6His (TNT-175)
# Assay: competition ELISA; nectin-4 ECD premixed with TNT210, captured by the coat antibody; % of signal without premix antibody
# Protocol: as §1
row,% of Positive,Binder
1,11%,B1
2,16.3%,B2
3,2.6%,B3

# Target: T1, Human nectin-4 ECD-6His (TNT-175)
# Assay: competition ELISA; nectin-4 ECD premixed with TNT211, captured by the coat antibody; % of signal without premix antibody
# Protocol: as §1
row,% of Positive,Binder
1,46.1%,B1
2,46.9%,B2
3,32.4%,B3

# Target: T1, Human nectin-4 ECD-6His (TNT-175)
# Assay: competition ELISA; nectin-4 ECD premixed with TNT212, captured by the coat antibody; % of signal without premix antibody
# Protocol: as §1
row,% of Positive,Binder
1,21.2%,B1
2,20.7%,B2
3,2.7%,B3
